Experimental data: patent publication US20160030544A1 (ISIS INNOVATION, published 2016)

What was measured:
[1] = target: T1, fH6-7 (factor H CCP domains 6-7) (UniProt P08603 321-443); assay: SPR, Biacore 3000, protein on CM5 chip, fH6-7 as analyte
T1 construct: domain: fH6-7; Analyte in SPR, 0.5 nM-32 nM
T1 sequence: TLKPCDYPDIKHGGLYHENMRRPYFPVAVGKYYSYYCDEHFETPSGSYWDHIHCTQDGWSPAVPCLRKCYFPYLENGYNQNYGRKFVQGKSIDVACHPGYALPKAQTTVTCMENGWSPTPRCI

[2] = target: T1, fH6-7 (factor H CCP domains 6-7); assay: SPR, Biacore 3000, protein on CM5 chip
[3] = target: T2, factor H (fH), full length (human, UniProt P08603 19-1231); assay: ELISA, coated protein, purified full length fH
T2 construct: mature; Far western used normal human serum diluted 1:100 as the source of fH; also called full length fH; purified full length fH
T2 sequence (P08603 19-1231): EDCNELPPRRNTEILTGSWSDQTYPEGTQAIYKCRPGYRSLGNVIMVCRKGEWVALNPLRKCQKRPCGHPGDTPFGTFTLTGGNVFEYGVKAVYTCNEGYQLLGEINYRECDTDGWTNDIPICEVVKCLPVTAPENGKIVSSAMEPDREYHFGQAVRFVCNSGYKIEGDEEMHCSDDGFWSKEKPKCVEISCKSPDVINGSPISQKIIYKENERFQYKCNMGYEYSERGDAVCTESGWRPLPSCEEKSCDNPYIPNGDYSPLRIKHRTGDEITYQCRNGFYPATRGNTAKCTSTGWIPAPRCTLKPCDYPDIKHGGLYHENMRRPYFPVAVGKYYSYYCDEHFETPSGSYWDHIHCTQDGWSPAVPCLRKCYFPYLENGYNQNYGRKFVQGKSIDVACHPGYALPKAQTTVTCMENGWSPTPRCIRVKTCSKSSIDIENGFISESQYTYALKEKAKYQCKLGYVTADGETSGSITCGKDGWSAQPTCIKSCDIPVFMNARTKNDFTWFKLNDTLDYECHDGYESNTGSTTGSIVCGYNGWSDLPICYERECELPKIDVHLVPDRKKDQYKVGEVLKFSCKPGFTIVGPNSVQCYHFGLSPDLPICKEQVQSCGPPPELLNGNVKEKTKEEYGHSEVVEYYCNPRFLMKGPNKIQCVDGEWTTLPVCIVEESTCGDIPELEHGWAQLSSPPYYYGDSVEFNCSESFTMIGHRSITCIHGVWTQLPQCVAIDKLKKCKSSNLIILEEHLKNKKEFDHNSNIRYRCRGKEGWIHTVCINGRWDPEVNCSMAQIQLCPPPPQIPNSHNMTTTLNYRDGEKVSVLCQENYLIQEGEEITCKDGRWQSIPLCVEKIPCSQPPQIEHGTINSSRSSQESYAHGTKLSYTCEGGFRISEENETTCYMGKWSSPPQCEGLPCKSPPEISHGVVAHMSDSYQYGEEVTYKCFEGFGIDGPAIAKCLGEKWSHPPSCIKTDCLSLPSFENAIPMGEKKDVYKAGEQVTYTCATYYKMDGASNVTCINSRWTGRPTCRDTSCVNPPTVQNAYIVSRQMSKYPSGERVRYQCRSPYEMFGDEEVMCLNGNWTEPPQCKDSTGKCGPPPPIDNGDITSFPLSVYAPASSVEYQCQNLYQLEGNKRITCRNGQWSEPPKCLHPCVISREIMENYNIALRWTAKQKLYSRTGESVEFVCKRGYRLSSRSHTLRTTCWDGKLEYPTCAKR

| Binder | Kd [1] [nM] | binding result [2] | binding result [3] |
| --- | --- | --- | --- |
| Ghfp^M4 (R288H) (other, Text prints R288H (numbering according to fHbp V1.1 structure)) DKGLKSLTLEASIPQNGTLTLSAQGAEKTFKAGGKDNSLNTGKLKNDKISRFDFVQKIEVDGQTITLASGEFQIYKQDHSAVVALRIEKINNPDKIDSLINQRSFLVSDLGGEHTAFNQLPDGKAEYHGKAFSSDDADGKLTYTIDFAAKQGHGKIEHLKTPEQNVELASAELKADEKSHAVILGDTRYGGEEKGTYHLALFGDRAQEIAGSATVKIGEKVHEIGIADKQ | 16 | – | – |
| Ghfp^M4-5 (R288H/D318G) (other, Text prints R288H/D318G (fHbp V1.1 structure numbering)) DKGLKSLTLEASIPQNGTLTLSAQGAEKTFKAGGKDNSLNTGKLKNDKISRFDFVQKIEVDGQTITLASGEFQIYKQDHSAVVALRIEKINNPDKIDSLINQRSFLVSDLGGEHTAFNQLPDGKAEYHGKAFSSDDADGKLTYTIDFAAKQGHGKIEHLKTPEQNVELASAELKADEKSHAVILGDTRYGGEEKGTYHLALFGDRAQEIAGSATVKIGEKVHEIGIAGKQ | 2 | – | – |
| Ghfp^M5 (D318G) (other, Text prints D318G (fHbp V1.1 structure numbering)) DKGLKSLTLEASIPQNGTLTLSAQGAEKTFKAGGKDNSLNTGKLKNDKISRFDFVQKIEVDGQTITLASGEFQIYKQDHSAVVALRIEKINNPDKIDSLINQRSFLVSDLGGEHTAFNQLPDGKAEYHGKAFSSDDADGKLTYTIDFAAKQGHGKIEHLKTPEQNVELASAELKADEKSHAVILGDTRYGGEEKGTYRLALFGDRAQEIAGSATVKIGEKVHEIGIAGKQ | – | no binding (tested: fH6-7 0.5 nM-32 nM) | no binding |
